Laboratory results: patent publication US20040063116

How the values were obtained:
[1] = molecular target: T1, RNase A zymogen with 88/89 termini, P61823
T1 chain: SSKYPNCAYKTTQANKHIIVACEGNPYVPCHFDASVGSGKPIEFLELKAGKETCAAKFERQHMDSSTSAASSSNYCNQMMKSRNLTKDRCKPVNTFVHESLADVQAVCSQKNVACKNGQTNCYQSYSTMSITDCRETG

[2] = molecular target: T2, RNase A zymogen with 67/71 termini, P61823
T2 chain: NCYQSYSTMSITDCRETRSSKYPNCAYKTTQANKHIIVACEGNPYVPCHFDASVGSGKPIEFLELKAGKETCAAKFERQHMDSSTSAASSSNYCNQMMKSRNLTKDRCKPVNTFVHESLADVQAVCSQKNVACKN

[3] = molecular target: T3, RNase A zymogen with 113/114 termini, P61823
T3 chain: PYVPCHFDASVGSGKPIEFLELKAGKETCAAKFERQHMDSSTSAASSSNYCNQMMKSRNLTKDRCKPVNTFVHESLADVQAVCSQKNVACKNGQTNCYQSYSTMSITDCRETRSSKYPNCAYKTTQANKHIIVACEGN

[4] = molecular target: RNase A zymogen with 20/21 termini, P61823
RNase A zymogen with 20/21 termini, P61823, sequence (P61823 whole entry, looked up): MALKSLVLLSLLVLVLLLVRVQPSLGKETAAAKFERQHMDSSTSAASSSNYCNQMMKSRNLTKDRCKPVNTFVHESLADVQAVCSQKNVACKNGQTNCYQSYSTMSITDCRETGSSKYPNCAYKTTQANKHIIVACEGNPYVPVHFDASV

[5] = molecular target: T4, RNase A zymogen with 104/105 termini, P61823
T4 chain: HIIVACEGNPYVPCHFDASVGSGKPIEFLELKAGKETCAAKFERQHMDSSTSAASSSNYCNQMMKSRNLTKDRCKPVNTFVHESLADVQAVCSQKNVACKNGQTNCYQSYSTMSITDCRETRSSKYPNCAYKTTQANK

B1: plasmepsin II (protein)
chain: MDITVREHDFKHGFIKSNSTFDGLNIDNSKNKKKIQKGFQILYVLLFCSVMCGLFYYVYENVWLQRDNEMNEILKNSEHLTIGFKVENAHDRILKTIKTHKLKNYIKESVNFLNSGLTKTNYLGSSNDNIELVDFQNIMFYGDAEVGDNQQPFTFILDTGSANLWVPSVKCTTAGCLTKHLYDSSKSRTYEKDGTKVEMNYVSGTVSGFFSKDLVTVGNLSLPYKFIEVIDTNGFEPTYTASTFDGILGLGWKDLSIGSVDPIVVELKNQNKIENALFTFYLPVHDKHTGFLTIGGIEERFYEGPLTYEKLNHDLYWQITLDAHVGNIMLEKANCIVDSGTSAITVPTDFLNKMLQNLDVIKVPFLPFYVTLCNNSKLPTFEFTSENGKYTLEPEYYLQHIEDVGPGLCMLNIIGLDFPVPTFILGDPFMRKYFTVFDYDNHSVGIALAKKNL
[1]
  proteolytic cleavage of the zymogen (SDS-PAGE) and gain of ribonucleolytic activity: The proteolytic cleavage by plasmepsin II was complete within 10 minutes at an approximately 1:100 molar ratio of protease to zymogen
[2]
  proteolytic cleavage of the zymogen (SDS-PAGE) and gain of ribonucleolytic activity: The proteolytic cleavage by plasmepsin II was complete within 10 minutes at an approximately 1:100 molar ratio of protease to zymogen
[3]
  proteolytic cleavage of the zymogen (SDS-PAGE) and gain of ribonucleolytic activity: The proteolytic cleavage by plasmepsin II was complete within 10 minutes at an approximately 1:100 molar ratio of protease to zymogen
[4]
  proteolytic cleavage of the zymogen (SDS-PAGE) and gain of ribonucleolytic activity: The proteolytic cleavage by plasmepsin II was complete within 10 minutes at an approximately 1:100 molar ratio of protease to zymogen
[5]
  proteolytic cleavage of the zymogen (SDS-PAGE) and gain of ribonucleolytic activity: The proteolytic cleavage by plasmepsin II was complete within 10 minutes at an approximately 1:100 molar ratio of protease to zymogen
